Here are results for five molecules from patent US20200055951A1 (DONG A UNIVERSITY RESEARCH FOUNDATION FOR INDUSTRY ACADEMY …, published 2020).

Positions count from the first letter of the chain named.

Assay [1] has as its target T1, PAUF-His protein (UniProt Q96DA0 17-172, limits assumed).
T1 construct: not shown: His tag
T1 sequence (looked up): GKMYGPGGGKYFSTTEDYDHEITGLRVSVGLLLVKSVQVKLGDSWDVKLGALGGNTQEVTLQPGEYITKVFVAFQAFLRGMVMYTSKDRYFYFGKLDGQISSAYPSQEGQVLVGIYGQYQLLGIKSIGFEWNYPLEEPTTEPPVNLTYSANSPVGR
As to the kind of experiment: indirect ELISA titration on PAUF-His, anti-human Fc-HRP; column head Kd (10^-9 M). Here is the method: Specifically, indirect ELISA was performed. An immuno-plate was coated with the PAUF-His protein and treated with each antibody at different concentrations, and the results were analyzed using the anti-human Fc-HRP capable of recognizing the constant region of human antibody as the secondary antibody. In particular, as the concentration of each antibody increases, the OD value increases.
In general terms: ELISA stands for enzyme-linked immunosorbent assay.

The target of assay [2] is T2, pancreatic adenocarcinoma upregulated factor (PAUF) protein (UniProt Q96DA0 17-172, limits assumed).
T2 construct: no tag is mentioned there; also called Antigen PAUF
T2 sequence (looked up): T1 sequence (looked up)
Description: indirect ELISA, PAUF-coated plate, HRP-labeled anti-mouse antibody. Here is the method: Specifically, the affinity of the antigen-antibody was tested using indirect ELISA. The PAUF-coated immuno-plate was treated with the four kinds of antibodies (2H2, 4E6, 11 G6, and 20C5) at different concentrations and the OD values were measured using the HRP-labeled anti-mouse antibody. In particular, as the OD value becomes higher, the affinity of the antibody for the PAUF becomes higher. Additionally, for the measurement of the nonspecific binding of an anti-PAUF mouse monoclonal antibody, which has a high affinity for PAUF, to other antigenic proteins, the immuno-plate was coated with PAUF and unspecified antigens so as to perform indirect ELISA.

The target of assay [3] is T2, pancreatic adenocarcinoma upregulated …. Description: SPR, PAUF immobilized, antibody in flow at different concentrations. As to the method: Specifically, the antigen-antibody binding affinity was measured using the SPR method. Antigen PAUF was immobilized on the surface of a thin metal film and the antibody was diluted at different concentrations and allowed to pass through the metal surface. The antigen-antibody binding affinity was measured by measuring the time required for binding and dissociation between antigens and antibodies.
Background: Surface plasmon resonance follows binding to a sensor surface in real time, without labels.

B1: cPMAb22 (chimeric antibody of 2H2) (antibody, V domains shown)
VH: QVQLKQSGAELVRPGALVKLSCKASGFNIKDYYMHWVKQRPEQGLEWIGWIDPENGNTIYDPKFQGKASITADTSSNTAYLQLSSLTSEDTAVYYCARRAITTATAWFAYWGQGTLVTVSA
VL: DIVMTQSPSSLAVSAGEKVTMSCKSSQSLLNSRTRKNYLAWYQQKPGQSPKLLIYWASTRESGVPDRFTGSGSGTDFTLTISSVQAEDLAVYYCKQSYNLYTFGAGTKLELK
notes: Mouse variable regions of 2H2 on human heavy and light chain constant regions (kappa light chain implied by the anti-human kappa secondary antibody); Expressed in HEK293 cells
By Kd is commonly meant the constant that tells how readily two partners part at equilibrium. Turning to B1, the affinity in assay [1], expressed as Kd, was 0.01 nM.

B2: 20C5 (anti-PAUF protein mouse antibody) (antibody, V domains shown)
VH: QVQLKESGAELVRPGALVKLSCKASGFNIKDYYMHWVKQRPEQGLEWIGWIDPEHGNTIYDPKFQGKASLTADTSSNTAYLQLSSLTSEDTAVYYCARRGWLPAWFAYWGQGTLVTVSA
VL: B1 VL with M21L, A105G, L111I
notes: Mouse monoclonal antibody
Usually EC50 (read off the curve) stands for the concentration needed to bring the measured effect to its halfway point. High values mean a less potent agent, low ones a more potent agent. For the molecule B2, in assay [2], the “EC50 (read off the curve)” value was ~20 ng/mL.

B3: 2H2 (anti-PAUF protein mouse antibody) (antibody, V domains shown)
VH: B1 VH
VL: B1 VL
notes: Mouse monoclonal antibody; also called 21-12 [sic]
For the molecule B3, the “EC50 (read off the curve)” value in assay [2] was ~50 ng/mL.

B4: cPMAb205 (chimeric antibody of 20C5) (antibody, V domains shown)
VH: B2 VH
VL: B1 VL with M21L, A105G, L111I
notes: Mouse variable regions of 20C5 on human heavy and light chain constant regions (kappa light chain implied by the anti-human kappa secondary antibody); Expressed in HEK293 cells
The molecule B4 registered a Kd in assay [1] of 0.03 nM.

B5: hPMAb22 (anti-PAUF protein humanized antibody) (antibody, V domains shown)
VH: QVQLVQSGAEVKKPGASVKVSCKASGFNIKDYYMHWVRQAPGQGLEWMGWIDPENGNTNYAQKFQGRVTMTRDTSISTAYMELSRLRSDDTAVYYCARRAITTATAWFAYWGQGTLVTVSS
VL: DIVMTQSPDSLAVSLGERATINCKSSQSLLNSRTRKNYLAWYQQKPGQPPKLLIYWASTRESGVPDRFSGSGSGTDFTLTISSLQAEDVAVYYCKQSYNLYTFGQGTKVEIK
notes: CDR-grafted humanized antibody with human constant regions; Expressed in HEK293 cells; also called 2H2-VH1/VL1; 2H2-VH1-VL1
B5 had a Kd in assay [3] of 0.194 nM.
